Assay results as given in the supplement of paper PMC9112550, “Optimization of the antimicrobial peptide Bac7 by deep mutational scanning” (BMC Biology, 2022).

tested on: Escherichia coli TOP10; assay: shrunken log2 fold change of peptide-encoding DNA abundance (4.5 h post-induction vs induction); higher = less antimicrobial activity (less host growth inhibition); settings: time post-induction: 4.5 h; library: site-saturation at positions 5, 18, 19, 20
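Further: peptides expressed intracellularly from a pBAD plasmid library in pooled LB shake-flask culture, induced with 0.3% L-arabinose, DNA abundance read by NGS, three biological replicates, DESeq2 with apeglm shrinkage.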

Point of comparison: RRIRHRPPRLPRPRPRPEDLPRP, “shrunken log2 fold change” value 0.172. Against it:
- RRIRCRPPRLPRPRPRPWCEPRP — lower, -0.349
- RRIRTRPPRLPRPRPRPESGPRP — within 0.2 log units, 0.366
- RRIRSRPPRLPRPRPRPVRAPRP — higher, 0.655
- RRIRWRPPRLPRPRPRPRNFPRP — within 0.2 log units, 0.0292
- RRIRNRPPRLPRPRPRPKLNPRP — lower, -0.208
- RRIRVRPPRLPRPRPRPICEPRP — within 0.2 log units, 0.058
- RRIRHRPPRLPRPRPRPDQNPRP — lower, -0.14
- RRIRARPPRLPRPRPRPMRMPRP — higher, 0.784
- RRIRCRPPRLPRPRPRPAKEPRP — within 0.2 log units, -0.0092
- RRIRYRPPRLPRPRPRPVNVPRP — lower, -0.0979
- RRIRPRPPRLPRPRPRPQMFPRP — within 0.2 log units, 0.161
- RRIRGRPPRLPRPRPRPFMYPRP — within 0.2 log units, 0.345
- RRIRQRPPRLPRPRPRPFLPPRP — lower, -0.0691
- RRIRSRPPRLPRPRPRPRHNPRP — lower, -0.324
- RRIRPRPPRLPRPRPRPWEFPRP — lower, -0.0818
- RRIRWRPPRLPRPRPRPVNQPRP — within 0.2 log units, 0.0575
- RRIRWRPPRLPRPRPRPQFDPRP — within 0.2 log units, 0.0373
- RRIRWRPPRLPRPRPRPLVNPRP — lower, -0.0798
- RRIRDRPPRLPRPRPRPWMDPRP — within 0.2 log units, -0.0272
- RRIRWRPPRLPRPRPRPFKIPRP — lower, -0.358
- RRIRDRPPRLPRPRPRPDLYPRP — within 0.2 log units, 0.309
- RRIRFRPPRLPRPRPRPSWSPRP — lower, -0.557
- RRIRLRPPRLPRPRPRPDMVPRP — lower, -0.175
- RRIRFRPPRLPRPRPRPKLAPRP — higher, 0.559
- RRIRSRPPRLPRPRPRPKGNPRP — lower, -0.144
- RRIRSRPPRLPRPRPRPENHPRP — lower, -0.138
- RRIRGRPPRLPRPRPRPIQPPRP — higher, 0.46
- RRIRNRPPRLPRPRPRPQISPRP — within 0.2 log units, 0.00683
- RRIRWRPPRLPRPRPRPNHRPRP — lower, -0.0538
- RRIRHRPPRLPRPRPRPEGEPRP — within 0.2 log units, 0.0139
- RRIRDRPPRLPRPRPRPELNPRP — higher, 1.04
- RRIRDRPPRLPRPRPRPIRGPRP — lower, -0.0417
- RRIRKRPPRLPRPRPRPGNMPRP — within 0.2 log units, 0.257
- RRIRCRPPRLPRPRPRPLTVPRP — lower, -0.483
- RRIRHRPPRLPRPRPRPKDVPRP — within 0.2 log units, 0.0703
- RRIRGRPPRLPRPRPRPILKPRP — within 0.2 log units, 0.316
- RRIRWRPPRLPRPRPRPIFDPRP — within 0.2 log units, 0.273
- RRIRFRPPRLPRPRPRPYWLPRP — lower, -0.234
- RRIRMRPPRLPRPRPRPEIVPRP — higher, 0.574
- RRIRSRPPRLPRPRPRPTAWPRP — higher, 0.47
- RRIRPRPPRLPRPRPRPVTPPRP — within 0.2 log units, 0.125
- RRIRHRPPRLPRPRPRPYQNPRP — within 0.2 log units, 0.0439
- RRIRNRPPRLPRPRPRPCNAPRP — lower, -0.0514
- RRIRVRPPRLPRPRPRPIKKPRP — within 0.2 log units, -0.015
- RRIRIRPPRLPRPRPRPSGQPRP — lower, -0.0453
- RRIRMRPPRLPRPRPRPNGDPRP — within 0.2 log units, 0.297
- RRIRWRPPRLPRPRPRPVVEPRP — within 0.2 log units, 0.0281
- RRIRVRPPRLPRPRPRPVQMPRP — lower, -0.0712
- RRIRMRPPRLPRPRPRPRWTPRP — higher, 0.548
- RRIRRRPPRLPRPRPRPVIYPRP — within 0.2 log units, 0.0526
- RRIRHRPPRLPRPRPRPETAPRP — within 0.2 log units, 0.346
- RRIRARPPRLPRPRPRPNDHPRP — lower, -0.0473
- RRIRIRPPRLPRPRPRPFYYPRP — lower, -0.667
- RRIRVRPPRLPRPRPRPNECPRP — lower, -0.0835
- RRIRRRPPRLPRPRPRPPIYPRP — higher, 0.786
- RRIRPRPPRLPRPRPRPVKCPRP — lower, -0.0701
- RRIRGRPPRLPRPRPRPQPLPRP — higher, 0.45
- RRIRFRPPRLPRPRPRPRQPPRP — higher, 0.68
- RRIRKRPPRLPRPRPRPANAPRP — higher, 0.426
- RRIRGRPPRLPRPRPRPFNRPRP — within 0.2 log units, -0.0104
- RRIRVRPPRLPRPRPRPNIQPRP — lower, -0.121
- RRIRERPPRLPRPRPRPVMDPRP — lower, -0.0467
- RRIRSRPPRLPRPRPRPGWTPRP — lower, -0.0313
- RRIRGRPPRLPRPRPRPFSGPRP — lower, -0.325
- RRIRVRPPRLPRPRPRPTKEPRP — lower, -0.0294
- RRIRQRPPRLPRPRPRPQMMPRP — lower, -0.082
- RRIRYRPPRLPRPRPRPKAYPRP — within 0.2 log units, 0.00787
- RRIRARPPRLPRPRPRPGNLPRP — lower, -0.232
- RRIRARPPRLPRPRPRPIAIPRP — within 0.2 log units, 0.0259
- RRIRLRPPRLPRPRPRPCEEPRP — within 0.2 log units, -0.0266
- RRIRYRPPRLPRPRPRPATDPRP — lower, -0.327
- RRIRRRPPRLPRPRPRPNLEPRP — higher, 0.442
- RRIRYRPPRLPRPRPRPGECPRP — lower, -0.489
- RRIRIRPPRLPRPRPRPENIPRP — lower, -0.106
- RRIRGRPPRLPRPRPRPLLIPRP — higher, 0.61
- RRIRVRPPRLPRPRPRPAACPRP — within 0.2 log units, 0.244
- RRIRRRPPRLPRPRPRPTEIPRP — within 0.2 log units, 0.299
- RRIRFRPPRLPRPRPRPWDQPRP — within 0.2 log units, 0.0971
- RRIRKRPPRLPRPRPRPGCRPRP — higher, 0.654
- RRIRPRPPRLPRPRPRPIRWPRP — lower, -0.0338
- RRIRQRPPRLPRPRPRPCYFPRP — lower, -0.734
- RRIRQRPPRLPRPRPRPERIPRP — lower, -0.328
- RRIRDRPPRLPRPRPRPDSCPRP — within 0.2 log units, 0.0444
- RRIRFRPPRLPRPRPRPHAQPRP — lower, -0.305
- RRIRERPPRLPRPRPRPGIPPRP — lower, -0.421
- RRIRTRPPRLPRPRPRPMRIPRP — within 0.2 log units, -0.0254
- RRIRIRPPRLPRPRPRPHDYPRP — lower, -0.262
- RRIRIRPPRLPRPRPRPWYPPRP — lower, -0.238
- RRIRLRPPRLPRPRPRPVIDPRP — lower, -0.182
- RRIRLRPPRLPRPRPRPTLPPRP — within 0.2 log units, 0.223
- RRIRWRPPRLPRPRPRPSKPPRP — within 0.2 log units, -0.0185
- RRIRMRPPRLPRPRPRPRILPRP — within 0.2 log units, 0.0948
- RRIRIRPPRLPRPRPRPHPGPRP — lower, -0.571
- RRIRTRPPRLPRPRPRPVDWPRP — within 0.2 log units, 0.0292
- RRIRYRPPRLPRPRPRPKWHPRP — lower, -0.358
- RRIRDRPPRLPRPRPRPDQFPRP — within 0.2 log units, -0.00947
- RRIRNRPPRLPRPRPRPTTFPRP — lower, -0.337
- RRIRSRPPRLPRPRPRPVIPPRP — lower, -0.156
- RRIRDRPPRLPRPRPRPNAPPRP — within 0.2 log units, 0.209
- RRIRNRPPRLPRPRPRPDYTPRP — within 0.2 log units, 0.115
- RRIRLRPPRLPRPRPRPYIEPRP — lower, -0.176
- RRIRDRPPRLPRPRPRPIDFPRP — within 0.2 log units, 0.132
- RRIRCRPPRLPRPRPRPNWWPRP — within 0.2 log units, 0.32
- RRIRFRPPRLPRPRPRPDCFPRP — within 0.2 log units, -0.00719
- RRIRTRPPRLPRPRPRPTDIPRP — within 0.2 log units, 0.0221
- RRIRRRPPRLPRPRPRPPCCPRP — higher, 0.623
- RRIRERPPRLPRPRPRPLGMPRP — lower, -0.294
- RRIRVRPPRLPRPRPRPWWYPRP — lower, -0.327
- RRIRMRPPRLPRPRPRPRPNPRP — higher, 0.903
- RRIRERPPRLPRPRPRPKVCPRP — lower, -0.0496
- RRIRQRPPRLPRPRPRPQSYPRP — within 0.2 log units, 0.015
- RRIRIRPPRLPRPRPRPCRGPRP — within 0.2 log units, 0.0305
- RRIRNRPPRLPRPRPRPQCWPRP — within 0.2 log units, 0.057
- RRIRVRPPRLPRPRPRPIDRPRP — lower, -0.0529
- RRIRYRPPRLPRPRPRPCVAPRP — lower, -0.11
- RRIRIRPPRLPRPRPRPCAPPRP — lower, -0.506
- RRIRKRPPRLPRPRPRPMQLPRP — within 0.2 log units, 0.197
- RRIRTRPPRLPRPRPRPISIPRP — lower, -0.477
- RRIRARPPRLPRPRPRPIDRPRP — within 0.2 log units, -0.027
- RRIRWRPPRLPRPRPRPQVRPRP — within 0.2 log units, 0.037
- RRIRRRPPRLPRPRPRPGWNPRP — within 0.2 log units, 0.257
- RRIRDRPPRLPRPRPRPHYDPRP — within 0.2 log units, 0.0428
- RRIRPRPPRLPRPRPRPQLMPRP — within 0.2 log units, -0.0192
- RRIRRRPPRLPRPRPRPYWVPRP — within 0.2 log units, 0.0443
- RRIRGRPPRLPRPRPRPDMHPRP — higher, 0.512
- RRIRSRPPRLPRPRPRPWGLPRP — within 0.2 log units, 0.0137
- RRIRCRPPRLPRPRPRPHYDPRP — lower, -0.687
- RRIRNRPPRLPRPRPRPGDMPRP — lower, -0.21
- RRIRMRPPRLPRPRPRPIMHPRP — lower, -0.128
- RRIRKRPPRLPRPRPRPEHAPRP — higher, 1.12
- RRIRCRPPRLPRPRPRPPYTPRP — lower, -0.343
- RRIRIRPPRLPRPRPRPKWTPRP — lower, -0.116
- RRIRCRPPRLPRPRPRPQKMPRP — lower, -0.0362
- RRIRERPPRLPRPRPRPWWAPRP — lower, -0.0718
- RRIRMRPPRLPRPRPRPMLVPRP — within 0.2 log units, 0.2
- RRIRHRPPRLPRPRPRPQHQPRP — lower, -0.192
- RRIRPRPPRLPRPRPRPKINPRP — lower, -0.32
- RRIRERPPRLPRPRPRPSFYPRP — lower, -0.308
- RRIRTRPPRLPRPRPRPERCPRP — within 0.2 log units, 0.0057
- RRIRKRPPRLPRPRPRPNVVPRP — within 0.2 log units, 0.0163
- RRIRKRPPRLPRPRPRPDFGPRP — within 0.2 log units, 0.052
- RRIRARPPRLPRPRPRPPEQPRP — higher, 0.941
- RRIRTRPPRLPRPRPRPCFNPRP — lower, -0.667
- RRIRPRPPRLPRPRPRPLQEPRP — within 0.2 log units, 0.18
- RRIRMRPPRLPRPRPRPVSRPRP — higher, 0.796
- RRIRERPPRLPRPRPRPMCKPRP — lower, -0.373
- RRIRIRPPRLPRPRPRPTIQPRP — lower, -0.334
- RRIRHRPPRLPRPRPRPEATPRP — within 0.2 log units, 0.0573
- RRIRSRPPRLPRPRPRPQHQPRP — lower, -0.0399
